Laboratory results published in the DeepSol protein solubility set.

Experiment: soluble on expression in E. coli; label from the status in PepcDB or PDB records

Sequence	soluble on expression in E. coli
MASNEKTRYKAIIADHTYTIIGQESKQHMDLVTKIVNEQLAEIKHLSPQTDTEQASVLLAINAISDQLKKQEYALKLEKQVADLKQKTIRLAELENRVRRMEIIEEEARDVLKKNGQEDVEIHNHVEAQQILNENRKQQIQNKGVSE	not soluble
MASNSRSSISPWTFSQNKMFERALAVYDKDTPDRWHNVAKAVGGKTVEEVKRHYDILVEDLINIETGRVPLPNYKTFESNSRSINDFDTRYITKYLYMMLSIYFDNHSSDFEKFSQKVLVSYISLV	soluble
MASNYNSGLKIGAWVGTQPSESAIKSFQELQGRKLDIVHQFINWSTDFSWVRPYADAVYNNGSILMITWEPWEYNTVDIKNGKADAYITRMAQDMKAYGKEIWLRPLHEANGDWYPWAIGYSSRVNTNETYIAAFRHIVDIFRANGATNVKWVFNVNCDNVGNGTSYLGHYPGDNYVDYTSIDGYNWGTTQSWGSQWQSFDQVFSRAYQALASINKPIIIAEFASAEIGGNKARWITEAYNSIRTSYNKVIAAVWFHENKETDWRINSSPEALAAYREAIGALEHHHHHH	soluble
MASQEFQGFLDSSLLNEEDCRQMIYRSEREHDARMVGVNVDQHFTSQYRKVLTTWMFCVCKDLRQDNNVFPLAVALLDELFLSTRIDRENYQSTAAVALHIAGKVRAYMPIKATQLAYLCGGATTADKLLTLEVKSLDTLSWVADRCLSTDLICYILHIMHAPREDYLNIYNLCRPKIFCALCDGRSAMKRPVLITLACMHLTMNQKYDYYENRIDGVCKSLYITKEELHQCCDLVDIAIVSFDENYFKINA	soluble
MASQPNSSAKKKEEKGKNIQVVVRCRPFNLAERKASAHSIVECDPVRKEVSVRTGGLADKSSRKTYTFDMVFGASTKQIDVYRSVVCPILDEVIMGYNCTIFAYGQTGTGKTFTMEGERSPNEEYTWEEDPLAGIIPRTLHQIFEKLTDNGTEFSVKVSLLEIYNEELFDLLNPSSDVSERLQMFDDPRNKRGVIIKGLEEITVHNKDEVYQILEKGAAKRTTAATLMNAYSSRSHSVFSVTIHMKETTIDGEELVKIGKLNLVDLAGSENIGRSGAVDKRAREAGNINQSLLTLGRVITALVERTPHVPYRESKLTRILQDSLGGRTRTSIIATISPASLNLEETLSTLEYAHRAKNILNKPEVNQKL	soluble
MASQQQTVREWSGINTFAPATQTKLLELLGNLKQEDVNSLTILVMGKGGVGKSSTVNSIIGERVVSISPFQSEGPRPVMVSRSRAGFTLNIIDTPGLIEGGYINDMALNIIKSFLLDKTIDVLLYVDRLDAYRVDNLDKLVAKAITDSFGKGIWNKAIVALTHAQFSPPDGLPYDEFFSKRSEALLQVVRSGASLKKDAQASDIPVVLIENSGRCNKNDSDEKVLPNGIAWIPHLVQTITEVALNKSESIFVDKNLIDKLAAADHHHHHH	soluble
MASRRSNAKSRDKPDKYSVLLPTYNERENLPLIVWLLVKYFGESGYNYEIIVIDDGSPDGTLQIAEQLQKIYGADKILLRPRAEKLGLGTAYIHGIKHATGNFVIIMDADLSHHPKFIPQFIEKQKEGGYDLVSGTRYRGDGGVYGWDLRRKLISRGANFVTQVLLRPGASDLTGSFRLYKKEVLEKLVEQCVSKGYVFQMEMIVRARQLGYTIGEVPISFVDRVYGESKLGGNEIVSFLKGLLTLFATT	not soluble
MASSASDGTHERSAFRLSPPVLSGAMGPFMHTGLYVAQSWRDYLGQQPDKLPIARPTIALAAQAFRDEIVLLGLKARRPVSNHRVFERISQEVAAGLEFYGNRRWLEKPSGFFAQPPPLTEVAVRKVKDRRRSFYRIFFDSGFTPHPGEPGSQRWLSYTANNREYALLLRHPEPRPWLVCVHGTEMGRAPLDLAVFRAWKLHDELGLNIVMPVLPMHGPRGQGLPKGAVFPGEDVLDDVHGTAQAVWDIRRLLSWIRSQEEESLIGLNGLSLGGYIASLVASLEEGLACAILGVPVADLIELLGRHCGLRHKDPRRHTVKMAEPIGRMISPLSLTPLVPMPGRFIYAGIADRLVHPREQVTRLWEHWGKPEIVWYPGGHTGFFQSRPVRRFVQAALEQSGLLDAPRTQRDRSA	not soluble
MASTQCVNIQKRDIIRGASDVSWFDVLLEKGACVTISAQDKPSVDLWLDDVIQESLIEGRHYCTKASTSDLKADARCPTQGEATMREEYLDGYVCKRSFSDRGWGNGCGLFGKGSIVGCAKATCGANDIIKSYSYDSPKVKYVIGAEVHQGKLLTNNSTDRIVKTTFTAESEKHTITIADYGSMDFTCRVVASAELSNIRMIELDGHMFNVHEDWLSDLPLPSKISGGSWHGMDRLVVFKEPHAVKMEIQACGDQRPAVFKSLVKAEEVTKTSNSYHLTGGHVDCRVSTLNLRMKGLTYQMCSSSFVWHKRPVATQHGTVAMEVKYKGSDAPCRIPVSVEKEGYNGKNFGNLITANPFAANNEAVVFLELEAPLGVSTIKVGGAVFQWKQEGSSIGKALEHHHHHH	not soluble
MASYSSILVLSVCTIGALAVMEHNSYYPGGHSTSYYQPFQTDTYGSKYYNTESYGKYDEHGNNGKDSHYEPNYYNPIASYYHSYMPKYHGGHNDYYTKYNQYTPYYGGSHQQNYYEQPKHDDYHGGDHHYDMHK	not soluble
MATAADSVYSIESPKAAKSLMLDVVHAGKRLVAVGDRGHILYSDDQGQTWVQAKVPTRQLLTAVYFVDDKRGWAVGHDAQVLASSDGGATWTRQFQDLKREAPLLDVWFKDTQTGYAVGAYGALLETSDGGQHWEDVSDRLDNEDQFHLNAIAQVKDSGLFIVGEQGSMFRSADDGQTWERLEGPYEGSLFGVIGTGQPATLLVYGLRGNLYRSTDFGSTWEQVELNAARGALEFGLSGATLLDDGSLVIVGNGGSVIRSTDHGQTFSVFNRADRISLSAVTAAGNGDLILAGQGGVRVSAATGAELGQLEHHHHHH	not soluble
MATAAETSASEPEAESKAGPKADGEEDEVKAARTRRKVLSRAVAAATYKTMGPAWDQQEEGVSESDGDEYAMASSAESSPGEYEWEYDEEEEKNQLEIERLEEQLSINVYDYNCHVDLIRLLRLEGELTKVRMARQKMSEIFPLTEELWLEWLHDEISMAQDGLDREHVYDLFEKAVKDYICPNIWLEYGQYSVGGIGQKGGLEKVRSVFERALSSVGLHMTKGLALWEAYREFESAIVEAARLEKVHSLFRRQLAIPLYDMEATFAEYEEWSEDPIPESVIQNYNKALQQLEKYKPYEEALLQAEAPRLAEYQAYIDFEMKIGDPARIQLIFERALVENCLVPDLWIRYSQYLDRQLKVKDLVLSVHNRAIRNCPWTVALWSRYLLAMERHGVDHQVISVTFEKALNAGFIQATDYVEIWQAYLDYLRRRVDFKQDSSKELEELRAAFTRALEYLKQEVEERFNESGDPSCVIMQNWARIEARLCNNMQKARELWDSIMTRGNAKYANMWLEYYNLERAHGDTQHCRKALHRAVQCTSDYPEHVCEVLLTMERTEGSLEDWDIAVQKTETRLARVNEQRMKAAEKEAALVQQEEEKAEQRKRARAEKKALKKKKKIRGPEKRGADEDDEKEWGDDEEEQPSKRRRVENSIPAAGETQNVEVAAGPAGKCAAVDVEPPSKQKEKAASLKRDMPKVLHDSSKDSITVFVSNLPYSMQEPDTKLRPLFEACGEVVQIRPIFSNRGDFRGYCYVEFKEEKSALQALEMDRKSVEGRPMFVSPCVDKSKNPDFKVFRYSTSLEKHKLFISGLPFSCTKEELEEICKAHGTVKDLRLVTNRAGKPKGLAYVEYENESQASQAVMKMDGMTIKENIIKVAISNPPQRKVPEKPETRKAPGGPMLLPQTYGARGKGRTQLSLLPRALQRPSAAAPQAENGPAAAPAVAAPAATEAPKMSNADFAKLFLRK	soluble
MATENPQTWALWLILSEMASDMQEDKKVAKILVLGPPKAGKTTLCTFLADFMEDGDTLKKGEDSGERERKFEFEFTSVYRPTKGVRIQEFETHEFFTEQEQNELGGTRRLEDSEIQLWDVSGDKKYEDCWPAIKENAEGVILVVNPEEHKGSDLQQWFYEFVEKENIDLSCVMVILNEQGAKKTNHEQISGFEILPKLRGVHHVAHHFGSEAMQVKMEVNSFMASVLKMDQRQMGSGVDHGLGYADEQEDDF	not soluble
MATFKDFRNNVKPNWCPGCGDFSVQAAIQKAAANIGLEPEEVAIITGIGCSGRLSGYINSYGVHSIHGRALPLAQGVKMANKDLTVIASGGDGDGYAIGMGHTIHALRRNMNMTYIVMDNQIYGLTKGQTSPSSAVGFVTKTTPKGNIEKNVAPLELALSSGATFVAQGFSSDIKGLTKLIEDAINHDGFSFVNVFSPCVTYNKINTYDWFKEHLTSVDDIENYDSTDKQLATKTVIEHESLVTGIVYQDKETPSYESQIKELDDTPLAKRDIKITEDTFNALTEQFI	not soluble
